In US20160185837A1, “GIP AND GLP-1 RECEPTOR DUAL-AGONISTS FOR THE TREATMENT OF DIABETES” (Medimmune Limited, priority 2013, published 2016):
Where a chain is given by its changes, count along the chain named.

T1: mouse GIP receptor (mouse) (UniProt Q0P543)
T1 sequence (looked up): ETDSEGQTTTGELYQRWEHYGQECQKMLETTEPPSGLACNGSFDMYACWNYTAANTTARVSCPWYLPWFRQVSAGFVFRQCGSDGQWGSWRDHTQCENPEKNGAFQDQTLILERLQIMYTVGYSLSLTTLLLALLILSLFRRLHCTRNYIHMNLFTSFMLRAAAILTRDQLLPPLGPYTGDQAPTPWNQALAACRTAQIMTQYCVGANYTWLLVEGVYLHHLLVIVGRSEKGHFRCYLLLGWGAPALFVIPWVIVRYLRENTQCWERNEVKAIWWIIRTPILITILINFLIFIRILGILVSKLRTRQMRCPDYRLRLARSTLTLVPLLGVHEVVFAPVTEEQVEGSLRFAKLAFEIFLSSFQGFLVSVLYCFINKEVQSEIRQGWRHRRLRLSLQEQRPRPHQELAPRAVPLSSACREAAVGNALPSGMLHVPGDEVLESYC

T2: rat GIP receptor (rat) (UniProt P43219)
T2 sequence (looked up): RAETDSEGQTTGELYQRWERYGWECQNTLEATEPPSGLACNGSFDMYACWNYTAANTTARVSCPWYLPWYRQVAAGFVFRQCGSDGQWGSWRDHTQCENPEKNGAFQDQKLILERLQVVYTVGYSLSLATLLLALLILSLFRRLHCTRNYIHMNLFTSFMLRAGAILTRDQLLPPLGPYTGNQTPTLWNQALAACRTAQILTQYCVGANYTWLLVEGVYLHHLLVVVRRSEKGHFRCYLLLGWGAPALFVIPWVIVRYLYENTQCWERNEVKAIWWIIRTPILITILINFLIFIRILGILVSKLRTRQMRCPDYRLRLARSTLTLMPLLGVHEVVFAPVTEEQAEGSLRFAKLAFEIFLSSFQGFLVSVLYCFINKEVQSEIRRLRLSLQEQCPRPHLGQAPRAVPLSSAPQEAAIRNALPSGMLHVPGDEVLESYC

T3: human GIP receptor (human) (UniProt P48546)
T3 sequence (looked up): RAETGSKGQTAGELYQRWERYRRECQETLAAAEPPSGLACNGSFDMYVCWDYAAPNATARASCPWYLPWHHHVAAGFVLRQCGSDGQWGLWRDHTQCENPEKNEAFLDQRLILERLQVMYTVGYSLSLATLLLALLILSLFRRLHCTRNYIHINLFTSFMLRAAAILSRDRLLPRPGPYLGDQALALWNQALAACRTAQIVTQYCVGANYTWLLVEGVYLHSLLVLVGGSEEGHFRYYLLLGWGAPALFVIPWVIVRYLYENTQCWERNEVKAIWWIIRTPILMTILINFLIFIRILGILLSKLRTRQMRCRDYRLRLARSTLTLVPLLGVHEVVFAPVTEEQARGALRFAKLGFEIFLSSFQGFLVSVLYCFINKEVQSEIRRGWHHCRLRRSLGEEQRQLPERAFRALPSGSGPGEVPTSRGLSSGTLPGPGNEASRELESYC

B1: IP351 (Fc fusion)
chain: YSEGTFISDYSIAMDKIHQQDFVNWLLAQKPSSGAPPPSGGGGSGGGGSGGGGSGGGGSACPPC
B2: IP209 (Fc fusion)
chain: YSEGTFTSDYSSYMERQAIDEFIAWLLKGGAAAGGSGSTASSGSGSATGGGGAATHTCPPCPAPEF
B3: IP402 (Fc fusion)
chain: YSEGTFISDYSIAMDKIHQQDFVNWLLAQKGSGGGGSGGGGSGGGGSGGGGSGGGGSGGGGSGGGGSACPPC
B4: IP344 (Fc fusion)
chain: YSEGTFISDYSIAMDKIHQQDFVNWLLAQKGGGGGSGGGGSGGGGSGGGGSGGGGSA
B5: IP387 (Fc fusion)
chain: YSEGTFISDYSIAMDKIHQQDFVNWLLAQKGGGGGSGGGGSGGGGSGGGGSGGGGSGGGGSGGGGSGGGGSACPPC
B6: IP389 (Fc fusion)
chain: YSEGTFISDYSIAMDKIHQQDFVNWLLAQKGGGGGSGGGGSGGGGSGGGGSGGGGSGGGGSGGGGSACPPC
B7: IP321 (Fc fusion)
chain: YSEGTFISDYSIAMDKIHQQDFVNWLLAGGAAAGGSGSTASSGSGSATGGGGAATHTCPPC
B8: IP359 (Fc fusion)
chain: YSEGTFTSDYSKLLEEEAVRLFIEHLLAGGGGGGSGGGGSGGGGSGGGGSATHTCPPC
B9: IP386 (Fc fusion)
chain: YSEGTFISDYSIAMDKIHQQDFVNWLLAQKGGGGGSGGGGSGGGGSGGGGSACPPC
B10: IP339 (Fc fusion)
chain: YSEGTFTSDYSKLLEKEAQRLFIEWLLAGGGGGGGSGGGGSGGGGSGGGGSGGGGSGGGGSA
B11: IP335 (Fc fusion)
chain: YSEGTFISDYSIAMDKIHQQDFVNWLLAQKGGGGGSGGGGSGGGGSGGGGSA
B12: IP275 (Fc fusion)
chain: YSEGTFTSDYSKLLEKEAQRLFIEWLLKGPGGGGGSGGGGSGGGGSGGGGSATHTCPPC
B13: IP289 (Fc fusion)
chain: B12 chain with Q19E
B14: IP299 (Fc fusion)
chain: YSEGTFISDYSKLLEEEAVRDFVEWLKAGGGGGGGSGGGGSGGGGSGGGGSATHTCPPC
B15: IP342 (Fc fusion)
chain: YSEGTFTSDYSAAAEAAAAAAFAAWLAAAAGGGGGSGGGGSGGGGSGGGGSACPPC
B16: IP336 (Fc fusion)
chain: YSEGTFISDYSIAMDKIHQQDFVNWLLAQKGGGGGSGGGGSGGGGSGGGGSGGGGSGGGGSA
B17: IP392 (Fc fusion)
chain: YSEGTFISDYSIAMDKIHQQDFVNWLLAQKGAANDWKHNITQGGGGSGGGGSGGGGSGGGGSGGGGSGGGGSACPPC
B18: IP398 (Fc fusion)
chain: B17 chain with A32K, A33K
B19: IP247 (Fc fusion)
chain: YSEGTFTSDYSKLLEKIHQQLFIEWLVKGPAAAGGSGSTASSGSGSATGGGGAATHTCPPCPAPEF
B20: IP338 (Fc fusion)
chain: YSEGTFISDYSIAMDKIHQQDFVNWLLAQKGGGGGSGGGGSGGGGSGGGGSGGGGSGGGGSGGGGSGGGGSAN
B21: IP337 (Fc fusion)
chain: YSEGTFISDYSIAMDKIHQQDFVNWLLAQKGGGGGSGGGGSGGGGSGGGGSGGGGSGGGGSGGGGSA

molecular target: T1, mouse GIP receptor (mouse); assay: cell-based or functional assay

cAMP EC50 [nM]	cAMP EC50, Batch 2 [nM]	Binder
0.0098	–	B1
4.9	> 6300	B2
0.033	–	B3
0.011	–	B4
0.019	–	B5
0.017	–	B6
0.017	–	B7
8.3	–	B8
0.03	–	B9
0.091	–	B10
0.02	–	B11
0.26	–	B12
0.44	–	B13
210	–	B14
43	–	B15
0.012	–	B16
0.031	–	B17
0.012	–	B18
2.3	–	B19
0.012	–	B20
0.013	–	B21

molecular target: human glucagon receptor (human) (UniProt P47871); assay: cell-based or functional assay
Sequence (P47871 26-477): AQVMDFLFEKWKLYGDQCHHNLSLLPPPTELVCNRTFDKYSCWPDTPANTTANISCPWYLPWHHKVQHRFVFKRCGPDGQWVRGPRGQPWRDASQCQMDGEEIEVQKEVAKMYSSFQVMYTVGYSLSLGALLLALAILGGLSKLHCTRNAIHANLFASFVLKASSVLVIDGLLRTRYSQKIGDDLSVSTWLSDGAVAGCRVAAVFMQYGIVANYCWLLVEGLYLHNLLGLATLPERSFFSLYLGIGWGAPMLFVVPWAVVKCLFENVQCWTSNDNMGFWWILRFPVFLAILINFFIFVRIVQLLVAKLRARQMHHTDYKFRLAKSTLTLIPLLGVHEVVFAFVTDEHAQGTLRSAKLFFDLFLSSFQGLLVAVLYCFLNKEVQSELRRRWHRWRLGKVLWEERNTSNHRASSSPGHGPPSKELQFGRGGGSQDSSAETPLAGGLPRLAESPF

cAMP EC50 [nM]	cAMP EC50, Batch 2 [nM]	Binder
130	–	B1
–	> 6270	B2
200	–	B3
200	–	B4
220	–	B5
> 269	–	B6
24	–	B7
43	–	B8
540	–	B9
23	–	B10
280	–	B11
230	–	B12
240	–	B13
53	–	B14
> 3560	–	B15
200	–	B16
530	–	B17
1600	–	B18
> 420	–	B19
190	–	B20
200	–	B21

molecular target: T2, rat GIP receptor (rat); assay: cell-based or functional assay

cAMP EC50 [nM]	cAMP EC50, Batch 2 [nM]	Binder
0.0063	–	B1
0.22	1.3	B2
0.0068	–	B3
0.0062	–	B4
0.0075	–	B5
0.0072	–	B6
0.0079	–	B7
0.039	–	B8
0.0085	–	B9
0.012	–	B10
0.0067	–	B11
0.014	–	B12
0.02	–	B13
0.11	–	B14
5.1	–	B15
0.0047	–	B16
0.0076	–	B17
0.0056	–	B18
0.03	–	B19
0.005	–	B20
0.0052	–	B21

molecular target: T3, human GIP receptor (human); assay: cell-based or functional assay

cAMP EC50 [nM]	cAMP EC50, Batch 2 [nM]	Binder
0.0036	–	B1
0.058	0.028	B2
0.038	–	B3
0.0053	–	B4
0.0045	–	B5
0.0027	–	B6
0.0096	–	B7
0.011	–	B8
0.0034	–	B9
0.0098	–	B10
0.0058	–	B11
0.0087	–	B12
0.01	–	B13
0.021	–	B14
4.7	–	B15
0.005	–	B16
0.0026	–	B17
0.0037	–	B18
0.019	–	B19
0.0052	–	B20
0.0062	–	B21

molecular target: human GLP-1 receptor (human) (UniProt P43220); assay: cell-based or functional assay
Sequence (P43220 24-463): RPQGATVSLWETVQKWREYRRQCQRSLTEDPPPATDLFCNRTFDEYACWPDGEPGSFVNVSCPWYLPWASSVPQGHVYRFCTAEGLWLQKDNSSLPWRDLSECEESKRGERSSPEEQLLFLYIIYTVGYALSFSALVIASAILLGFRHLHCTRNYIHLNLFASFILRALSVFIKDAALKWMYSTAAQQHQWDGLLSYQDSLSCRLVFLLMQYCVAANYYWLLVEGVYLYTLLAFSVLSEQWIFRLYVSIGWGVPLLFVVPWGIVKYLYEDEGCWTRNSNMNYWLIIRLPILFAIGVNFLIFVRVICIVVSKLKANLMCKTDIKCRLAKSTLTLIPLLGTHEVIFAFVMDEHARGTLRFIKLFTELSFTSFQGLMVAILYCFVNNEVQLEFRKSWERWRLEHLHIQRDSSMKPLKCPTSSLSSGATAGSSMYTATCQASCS

cAMP EC50 [nM]	cAMP EC50, Batch 2 [nM]	Binder
110	–	B1
0.23	0.2	B2
31	–	B3
> 8550	–	B4
370	–	B5
65	–	B6
72	–	B7
0.061	–	B8
> 9130	–	B9
0.18	–	B10
> 5480	–	B11
0.92	–	B12
3.4	–	B13
> 3640	–	B14
75	–	B15
> 4510	–	B16
2800	–	B17
9500	–	B18
63	–	B19
> 1890	–	B20
> 2300	–	B21

molecular target: rat GLP-1 receptor (rat) (UniProt P32301); assay: cell-based or functional assay
Sequence (P32301 22-463): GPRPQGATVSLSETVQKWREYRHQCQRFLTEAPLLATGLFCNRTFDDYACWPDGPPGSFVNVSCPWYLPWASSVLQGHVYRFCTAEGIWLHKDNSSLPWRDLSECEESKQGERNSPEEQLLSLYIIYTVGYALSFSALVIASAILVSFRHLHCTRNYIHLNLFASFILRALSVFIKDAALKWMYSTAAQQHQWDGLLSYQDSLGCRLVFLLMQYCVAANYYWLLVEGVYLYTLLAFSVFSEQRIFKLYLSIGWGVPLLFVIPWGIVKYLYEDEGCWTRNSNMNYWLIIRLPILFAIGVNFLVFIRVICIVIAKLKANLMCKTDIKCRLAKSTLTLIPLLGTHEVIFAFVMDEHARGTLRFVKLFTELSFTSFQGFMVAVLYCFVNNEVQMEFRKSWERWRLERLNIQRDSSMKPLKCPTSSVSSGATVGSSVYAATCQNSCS

cAMP EC50 [nM]	cAMP EC50, Batch 2 [nM]	Binder
210	–	B1
0.075	0.091	B2
11	–	B3
> 8550	–	B4
110	–	B5
9.9	–	B6
22	–	B7
0.04	–	B8
> 16600	–	B9
0.05	–	B10
> 2740	–	B11
0.062	–	B12
0.23	–	B13
19	–	B14
23	–	B15
> 2260	–	B16
720	–	B17
14000	–	B18
11	–	B19
> 945	–	B20
> 1150	–	B21

molecular target: mouse GLP-1 receptor (mouse) (UniProt O35659); assay: cell-based or functional assay
Sequence (O35659 22-463): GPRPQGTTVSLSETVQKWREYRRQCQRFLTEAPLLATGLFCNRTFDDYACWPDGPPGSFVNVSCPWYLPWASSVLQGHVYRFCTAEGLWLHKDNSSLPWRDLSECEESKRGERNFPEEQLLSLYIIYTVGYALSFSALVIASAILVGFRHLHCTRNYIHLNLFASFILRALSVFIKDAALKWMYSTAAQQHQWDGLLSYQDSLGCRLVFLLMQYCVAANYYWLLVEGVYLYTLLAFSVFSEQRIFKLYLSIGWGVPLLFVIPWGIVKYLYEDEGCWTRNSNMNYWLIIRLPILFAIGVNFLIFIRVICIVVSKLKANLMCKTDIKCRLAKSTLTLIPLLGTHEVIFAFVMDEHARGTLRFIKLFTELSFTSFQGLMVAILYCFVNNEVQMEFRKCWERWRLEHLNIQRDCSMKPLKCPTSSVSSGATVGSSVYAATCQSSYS

cAMP EC50 [nM]	cAMP EC50, Batch 2 [nM]	Binder
820	–	B1
0.84	1.6	B2
850	–	B3
> 8550	–	B4
> 1470	–	B5
1300	–	B6
330	–	B7
0.2	–	B8
> 16600	–	B9
1.6	–	B10
> 2740	–	B11
1.7	–	B12
6.8	–	B13
> 3640	–	B14
670	–	B15
> 2260	–	B16
> 17100	–	B17
> 17200	–	B18
280	–	B19
> 945	–	B20
> 1150	–	B21
